This note sets out measurements from PMC4966575.

The test addresses scFv 10-94 P (murine). Briefly: SPR. (In SPR one partner is held on a chip, and binding of the other changes the refractive index at the surface.)

“Protein L (PpL), free (from UniProt Q51918 1-992) (natural protein)” registered a KD1 (bivalent model) of 7.5 nM.
